Assay [1] deals with full length human Shh expressed on the cell surface (human) (UniProt Q15465). Nature of the assay: flow cytometry, 293T cells transiently transfected with human Shh; antibody 2 ug/ml.
The target is the same in assay [2]. Description: FMAT, antibody 10 µg/ml on 293T cells transiently expressing human Shh.
Assay [3] has the same target. Description: flow cytometry, 293T cells transiently transfected with human Shh; antibody 0.02 ug/ml. For orientation: Flow cytometry measures light scatter and fluorescence of single cells or particles in a stream.
Assay [4] shares this target. Description: flow cytometry, transfected against parental 293T cells; antibody 2 ug/ml.
The target is the same in assay [5]. Nature of the assay: flow cytometry, transfected against parental 293T cells.
Assay [6] has the same target. Nature of the assay: flow cytometry, 293T cells transiently transfected with human Shh; antibody 0.2 ug/ml.
Assay [7] has the same target. Nature of the assay: flow cytometry, transfected against parental 293T cells; antibody 0.02 ug/ml.
The target is the same in assay [8]. Description: flow cytometry, transfected against parental 293T cells; antibody 0.2 ug/ml.
The target of assay [9] is biotinylated human Shh (human) (UniProt Q15465). Description: ELISA, biotin-Shh coated at 500 ng/ml on neutravidin; antibody 1 ug/ml.
Assay [10] concerns the target full length human Shh expressed on the cell surface (human) (UniProt Q15465). Nature of the assay: flow cytometry, antibody 2 µg/ml, 293T cells transiently expressing human Shh.
In assay [11] the target is Shh-N in conditioned medium (human) (UniProt Q15465). Nature of the assay: cell-based or functional assay.
The target of assay [12] is full length human Shh expressed on the cell surface (human) (UniProt Q15465). Description: cell-based or functional assay.

In the case of “rat anti-Shh antibody (cat# MAB4641, R&D Systems, Inc.)”, the X Geo Mean (Transients) in [1] amounted to 965; in [3] it was 28.5; in assay [6] it was 221; in assay [10], 3. The FL1 X COUNT in assay [2] was 1.47e+06. Also, the Ratio in [4] was 443; in assay [5], 0.7; in [7] it was 13.7; in assay [8], 106. Further, in [9], the OD is 4.81 OD.
With 5E1 (antibody), in [11], the IC50, inhibition of osteoblast differentiation (alkaline phosphatase) of C3H10T1/2 cells was determined as 2.9 nM.
With huIgG2/4 (antibody), in assay [12], the % Inhibition of Gli1 reporter, Co-Culture N = 1, 20 µg/ml worked out at 18%; the % Inhibition of Gli1 reporter, Co-Culture N = 2, 20 µg/ml stood at 7%; the % Inhibition of Gli1 reporter, Co-Culture N = 3, 20 µg/ml was found to be 2%. Also, in assay [11], the % Inhibition of Gli1 reporter, Conditioned Media N = 1, 20 µg/ml came to 2% and the % Inhibition of Gli1 reporter, Conditioned Media N = 2, 20 µg/ml worked out at 23%.

Values taken from patent US20120328625A1.
